The values below are quoted from earlier work in US20060289354A1, “Method and composition to control the growth of microorganisms in aqueous systems and on substrates” (Buckman Laboratories International, Inc., priority 2005, published 2006).

Like-named read-outs stand apart in the source and are kept apart here.

The conditions of this series: for shelf life: original sealed package.

With lactoperoxidase [LP], the “effect of exposure to elevated temperature” value (>65° C. for short time (10 minutes)) is “denaturation of the protein and loss of the activity”. The shelf life is recorded as at least 2 years (8° C.) and “at least 1 year” (20° C.). Also, the “optimal pH” value (typical commercial form) is 5.0-6.5.
